No end group written: not given here.
How the values were obtained:
[1] = target: h-Tau 441 (human Tau isoform 2-441, Accession No. NP 005901.2) (human, UniProt P10636 2-758); assay: SPR, BIAcore CM3 sensor chip, immobilized h-Tau 441
Procedure: The binding affinity (Kd) of the 10H8 and 19G10 mAbs was determined by BIAcore CM3 sensor chip (Biacore, Piscataway, N.J.) using immobilized h-Tau 441 as the capture protein.

[2] = target: T1, PPAPKTPPSSGEPPK (human); assay: RepliTope peptide microarray, immobilized 15-mer, fluorescent secondary antibody
T1 construct: Synthetic peptide covalently immobilized on glass through a hydrophilic linker (RepliTope microarray)
T1 peptide: PPAPKTPPSSGEPPK
Excerpt: (§1) Epitope mapping of clones 10H8 and 19G10 was completed using JPT Peptide Technologies' RepliTope™ peptide microarrays. This technology consists in using purified synthetic peptides chemoselectively and covalently immobilized to the glass surface. An optimized hydrophilic linker moiety is inserted between the glass surface and the antigen derived peptide sequence to avoid false negatives caused by sterical hindrance. The peptides used spanned Tau mid region protein sequence of 166 amino acids between amino acid 104 and amino acid 269 (Tau 166). Peptides of 15 amino acids in length that extended downstream either 1 or 2 amino acids at a time were used in this experiment.
(§2) The assay was performed using an automated TECAN HS4X00 microarray processing station. Microarrays were washed, incubated with blocking buffer for 60 min at 30° C., and subsequently with clones […] and 19G10 diluted in blocking buffer for 120 min at 30° C. Microarrays were washed and incubated with secondary antibody diluted in blocking buffer for 45 min at 30° C. and then dried. The quantification was performed using high resolution fluorescence scanner. The resulting images were analyzed and quantified using spot-recognition software GenePix (Molecular Devices). For each spot, the mean signal intensity was extracted and expressed as arbitraty florescence units.

[3] = target: T2, APKTPPSSGEPPKSG (human); assay: as above
T2 construct: Synthetic peptide covalently immobilized on glass through a hydrophilic linker (RepliTope microarray)
T2 peptide: APKTPPSSGEPPKSG
Excerpt: as §1, §2

[4] = target: T3, KTPPSSGEPPKSGDR (human); assay: as above
T3 construct: Synthetic peptide covalently immobilized on glass through a hydrophilic linker (RepliTope microarray)
T3 peptide: KTPPSSGEPPKSGDR
Excerpt: as §1, §2

[5] = target: T4, PPSSGEPPKSGDRSG (human); assay: as above
T4 construct: Synthetic peptide covalently immobilized on glass through a hydrophilic linker (RepliTope microarray)
T4 peptide: PPSSGEPPKSGDRSG
Excerpt: as §1, §2

[6] = target: T5, SSGEPPKSGDRSGYS (human, also: covalently immobilized on glass through a hydrophilic linker); assay: as above
T5 construct: Synthetic peptide covalently immobilized on glass through a hydrophilic linker (RepliTope microarray)
T5 peptide: SSGEPPKSGDRSGYS
Excerpt: as §1, §2

[7] = target: T6, GEPPKSGDRSGYSSP (human); assay: as above
T6 construct: Synthetic peptide covalently immobilized on glass through a hydrophilic linker (RepliTope microarray)
T6 peptide: GEPPKSGDRSGYSSP
Excerpt: as §1, §2

[8] = target: T7, PPKSGDRSGYSSPGS (human); assay: as above
T7 construct: Synthetic peptide covalently immobilized on glass through a hydrophilic linker (RepliTope microarray)
T7 peptide: PPKSGDRSGYSSPGS
Excerpt: as §1, §2

[9] = target: T8, KSGDRSGYSSPGSPG (human); assay: as above
T8 construct: Synthetic peptide covalently immobilized on glass through a hydrophilic linker (RepliTope microarray)
T8 peptide: KSGDRSGYSSPGSPG
Excerpt: as §1, §2

[10] = target: T9, GDRSGYSSPGSPGTP (human); assay: as above
T9 construct: Synthetic peptide covalently immobilized on glass through a hydrophilic linker (RepliTope microarray)
T9 peptide: GDRSGYSSPGSPGTP
Excerpt: as §1, §2

[11] = target: T10, SSGEPPKSGDRSGYS (human, also: covalently immobilized on glass through a hydrophilic linker); assay: as above
T10 construct: Synthetic peptide covalently immobilized on glass through a hydrophilic linker (RepliTope microarray)
T10 peptide: SSGEPPKSGDRSGYS
Excerpt: as §1, §2

[12] = target: T11, SGEPPKSGDRSGYSS (human, also: covalently immobilized on glass through a hydrophilic linker); assay: as above
T11 construct: Synthetic peptide covalently immobilized on glass through a hydrophilic linker (RepliTope microarray)
T11 peptide: SGEPPKSGDRSGYSS
Excerpt: as §1, §2

[13] = target: T12, GEPPKSGDRSGYSSP (human); assay: as above
T12 construct: Synthetic peptide covalently immobilized on glass through a hydrophilic linker (RepliTope microarray)
T12 peptide: GEPPKSGDRSGYSSP
Excerpt: as §1, §2

[14] = target: T13, EPPKSGDRSGYSSPG (human); assay: as above
T13 construct: Synthetic peptide covalently immobilized on glass through a hydrophilic linker (RepliTope microarray)
T13 peptide: EPPKSGDRSGYSSPG
Excerpt: as §1, §2

[15] = target: T14, PPKSGDRSGYSSPGS (human); assay: as above
T14 construct: Synthetic peptide covalently immobilized on glass through a hydrophilic linker (RepliTope microarray)
T14 peptide: PPKSGDRSGYSSPGS
Excerpt: as §1, §2

[16] = target: T15, PKSGDRSGYSSPGSP (human); assay: as above
T15 construct: Synthetic peptide covalently immobilized on glass through a hydrophilic linker (RepliTope microarray)
T15 peptide: PKSGDRSGYSSPGSP
Excerpt: as §1, §2

[17] = target: T16, KSGDRSGYSSPGSPG (human); assay: as above
T16 construct: Synthetic peptide covalently immobilized on glass through a hydrophilic linker (RepliTope microarray)
T16 peptide: KSGDRSGYSSPGSPG
Excerpt: as §1, §2

[18] = target: T17, SGDRSGYSSPGSPGT (human, also: covalently immobilized on glass through a hydrophilic linker); assay: as above
T17 construct: Synthetic peptide covalently immobilized on glass through a hydrophilic linker (RepliTope microarray)
T17 peptide: SGDRSGYSSPGSPGT
Excerpt: as §1, §2

h-Tau 441 (human Tau isoform 2-441, Accession No. NP 005901.2), sequence (P10636 other isoform, or with tags, fused parts or gaps limits assumed): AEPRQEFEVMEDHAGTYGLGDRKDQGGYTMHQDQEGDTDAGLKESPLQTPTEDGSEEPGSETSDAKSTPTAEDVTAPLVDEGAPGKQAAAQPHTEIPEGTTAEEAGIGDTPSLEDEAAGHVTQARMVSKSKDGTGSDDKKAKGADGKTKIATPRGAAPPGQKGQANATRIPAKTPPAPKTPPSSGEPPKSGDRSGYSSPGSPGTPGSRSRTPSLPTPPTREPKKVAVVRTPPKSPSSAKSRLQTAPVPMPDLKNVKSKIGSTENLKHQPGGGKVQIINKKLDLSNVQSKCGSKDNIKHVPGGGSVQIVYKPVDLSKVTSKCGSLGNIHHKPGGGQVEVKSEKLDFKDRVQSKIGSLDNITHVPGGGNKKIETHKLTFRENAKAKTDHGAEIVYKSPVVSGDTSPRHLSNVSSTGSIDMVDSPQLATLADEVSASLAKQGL

Kd [1]: 6.3 nM | koff [1]: 0.000176 s⁻¹ | kon [1]: 25900 M⁻¹ s⁻¹ | Fluorescent Intensity [2]: 892 arbitrary fluorescence units | Fluorescent Intensity [3]: 761 arbitrary fluorescence units | Fluorescent Intensity [4]: 55800 arbitrary fluorescence units | Fluorescent Intensity [5]: 62000 arbitrary fluorescence units | Fluorescent Intensity [6]: 62700 arbitrary fluorescence units | Fluorescent Intensity [7]: 58000 arbitrary fluorescence units | Fluorescent Intensity [8]: 53400 arbitrary fluorescence units | Fluorescent Intensity [9]: 1810 arbitrary fluorescence units | Fluorescent Intensity [10]: 588 arbitrary fluorescence units | Fluorescent Intensity [11]: 55400 arbitrary fluorescence units | Fluorescent Intensity [12]: 59700 arbitrary fluorescence units | Fluorescent Intensity [13]: 58900 arbitrary fluorescence units | Fluorescent Intensity [14]: 63100 arbitrary fluorescence units | Fluorescent Intensity [15]: 58700 arbitrary fluorescence units | Fluorescent Intensity [16]: 49600 arbitrary fluorescence units | Fluorescent Intensity [17]: 1550 arbitrary fluorescence units | Fluorescent Intensity [18]: 619 arbitrary fluorescence units
B1: monoclonal antibody 19G10 (antibody, mouse IgG2b, V domains shown)
VH: QVTLKESGPGILQPSQTLSLTCSFSGFSLSTSGMGVGWIRQPSGKGLEWLAHIWWDDDKYYNAVLKSRLTISKDTSKNQVFLKIASVDTADTATYYCARIGIDGPYAMDYWGQGTSVTVSS
VL: DIVMSQSPSSLAVSIGEKVTMSCKSSQSLLYSNNQKNYLAWYQRKPGQSPKLLIYWASTRESGVPDRFTGSGSGTDFTLTITSVKAEDLAVYYCQQYYSYPLWTFGGGTKLEIK
notes: also called mAb 19G10; 19G10 mAb

Source: patent US20160356794A1 (Merck Sharp & Dohme, published 2016)
